Test: purified protein yield per well (BCA); higher = higher soluble expression
In short: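 Candidate enzymes were made in 2 mL autoinduction cultures of E. coli C41(DE3) with 100 µg/mL kanamycin, at 37 °C for 2 h and then 18 °C for 40 h, and purified with Ni-charged magnetic beads and SUMO protease cleavage. The Pierce Rapid Gold BCA kit gave purified protein yield per well. Values lower than 25 ug (0.1 mg/mL) are below the detection threshold.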

Sequence	purified protein yield per well
VENGPAPTLAALKADGPYAITSQAVPGNGFGAGTVYVPTAAGKYALVAICPGFVSAQSTMTDMAKRLATHGFVVVAISTNTLLDFPPSRASQLLAALKATASLTSGPVVGKIDTSRQAVSGWSMGGGGTLEAAGSTPGLMAAVAFAPWDTSTTKMKVDKVPAAIIGGSSDVIAPVSSHSQPFYNAIPSTTPKLLAVISGASHFFPTTASEPASYTNISWMKRFADGDTRYSQFLNGNDAALSSFTSNGPF [ESM092]	< 25 µg
GAAGNPYERGPDPTESSIEAPRGHYAVSETSVSALGVTGFGGGTIYYPTSTADGTFGAVAIAPGYTSLQSSIAWLGPRLASQGFVVITIDTRTTLDQPAGRGAQLLAALDYLTRRSSVRNRIDSGRLGVMGHSMGGGGSLEAAKGRPSLQAAIPLTGWNLDKTWPEIRVPTLLVGADGDTIAPVATHSQPFYQSLPSTLDRAYLELNNATHFTPNRPDTTIAKYSVSWLKRFIDNDTRYEQFLCPLPRPSRTIEEYRGNCPHTS [TEP007]	< 25 µg
QSNPYQKGPDPTHASIEADGPYAVSTQALKGSGFGSGTVYSPNAAGSYALVAVCPGFVSAQSSIAQISRRLATHGFVVVTIDTNTIFDFPDSRSTQLLAALKAVAALSTGPAAGKIDTARQAVAGWSMGGGGTLLAAGSTPALKGAVAYAPWALNNNLKASKVPAAILGGTADIVAPPGIFADVFYKAIPAGSSKLLGIVKGADHFFSNTASQPASYTTVAWFKRFVDNDTRYGPFLNGDTRYSRFSYTGPF [TEP040]	< 25 µg
AAPPVPQVAASPYERGPAPSEESVTAAEGPFEFETIDVPAGSGDGFNQGTIYAPTDRSQGTFGAIAVSPGFVSPEALVSWYGPRLASQGFVVMTIETNTVLDLPAMRGDQLLAALDYLTGAASPVADRVDPDRLAVMGHSMGGGGTLEAASRRTDLRAAVPLAPWNLTSDWSAVRTPTMILGAQNDFIAANGLHSEPFYEGLTSAPEKAYAELENTGHMSFNTPNDTIAKYTIAWMKRYVDDDARYERFLCPAPSDDPALIEYRDTCPGG [TEP149]	< 25 µg
RPAESGASAAAVQATGTQRGPDPTIAMIEATRGPFATAQVSAPSGNGFGGGVVYYPTDTTQGTWGALAIVPGYSALCSTEEAWMGPWLSSFGFVVICTETNTRTDSDSQRAAELQAALTWLTTQSPVKSEVDPARLSVLGHSAGGAGAMEEAEQHPELRAAIGLAPGFPGQGLTLATDTVPTLIVGGQNDGTVTPSYLSNLYGTLPASTQSDFAQIAGADHVYYTHANNIEMKLIIPWLKVFVDSDTRYTQFLCPTLPDPSTISAYQPKCPYVPSGGSTPPPPTSVAIVGTGSGRCVTVPGGTQTGGTQVQLADCAGGTSQQWTNTATGQLQVFGTSCLDANARGTSPGTKVIIWSCNGQQNQQWTVHADGSITGVQSGLCLDATGAGTANGTPLELWTCNGGSNQKWTLQ [TEP132]	< 25 µg
DGPYDVDWIYESDGLRNGPYYLGATLYYPINAPEPLASIVIVPGWGMPESTMQDWGPFFASWGIIAMTIGTNNPSTDWPEDRAEALLDAIETIKQENDRIDSPVNGRIDLNSFAVSGWSMGGGGAQLAAVMEPTLKAVIALCPWLDNWVLEPDDLNHSVPTLIFSGQYDVNAPPYLHANIHYNYTPSTTDKLLFEVEYGDHYVANGPNGGSGYVGDKALEWIN [TEP053]	< 25 µg
GPTDFQRGPAPTEQSITAERGPFATAQTTVDGPNFNKGTAYYPTDTSQGTFGAVAISPGFASPEAVVSWYGPRLASQGFVVLTLETNSGSDLPDSRATQLVNALDFLVQSSSVKDRIDPNRLAVMGHSMGGGGSLKASELRPSLKAAIPLMPWNNDKTWQGDRVPTMIMGAQNDAIASPASHAKPFYDSLTSAPEKAYLELRSEGHLVAVSPNVTIAKYSIAWLKRFVDEDVRYEQFLCPAPTANLQISEYRNTCPTG [DP025]	< 25 µg
QSNPYARGPDPTTAALEASRGPFAFSSFSVTRPSGYGAGTVYYPTNAGGTVGAIAIVPGFFARQSSINWWGPRLASHGFVVITIDTNSTFDQPASRASQQMAALRQVATLAGTSSSPIYRKVDTARLGVMGWSMGGGGTLLAARDNPSLKAAAPQAPWNSSTTNFSSMTVPTLIIACESDSTAPTRSHAEPFYTSMSRNSKQYLEINNGSHSCANGGSNTGLLGKKGVAWMKRFMDEDRRYTSFACSNPNSSAVSDFRTANCS [ESM149]	< 25 µg
QQIGPNPTSAQLNATSGPFAVSSSNVLIASGFGGGTIYYPTQSGSYGVIAVCPGFTGTSSSISWFARRLATHGFVTIAMDTNTLLDQPDSRATQLRAALNYLINNSSSTIRSRINPNLRGVAGHSMGGGGTLIASASDSTLKVGIPLTPWNLSSLPFYSIRVPQLVFGADGDTIAPYAVHARPFYNAIPSTTKKAYALLQSASHFTPNTTDERIGRYGVAFAKRWVYNDTRYSTFLTGAEHNAYNNILRFQTYLHNGPY [DP062]	< 25 µg
QSNPYQRGPNPTRAALMTDGPYAVATASVWPYIYGFGGGTIYYPTGTTETFGGIAVSPGFTADSTSLAWFGRRLASHGFVVIVINTNSRFDFPDSRASQLQAAIDYLRTNSPAAVRARLDENRIAVAGHSMGGGASLRASERLPWLKASVPLTPWHTDKTFSTSVPQLIIGAEWDTIAPVSSHAIPFYNNLPSSTPKVYLELNNATHFAPNTTNATISLYAISWMKRWVDNDTRYNQFLCGVNHTADPSISDYRTNAWTYCP [DP073]	< 25 µg
VPAPPAVERGPAPTPASVTAAVGPHAVITAAVRRADVAGFGGGTLLAPADAAGGPYGVVAVAPGFREGAATLAWLGPRLASRGFVVLLVDTLDPDEFPTARAAELLAAIDWVVADSPVRDRADPARAAVLGHSMGGGAALEAALARPGLRAAIPMAPWDPAADFAGVRVPTLVLAAEDDTIAPPAEHAERFYASLTAPARAYALLPGRDHDFSNAPDDVTAGLVLSWLARFVDGDTRYTRLLCRGTLSAAVASQQDTCPAP [TEP074]	< 25 µg
GASAPAANPYERGPAPTEQALLAPLGSFTYSTVVVPRSQVTGFGGGTIYYPDDTSQGTYGGVVAVPGFVSPEGAVAWLGPHMASRGFVVFTIATTSPFDQPTARGKQLLAALDHLTQRTPDAVRKRLDPARLAVTGHSMGGGGALYASGARPGIKAAIPLAPYNQDKTWNEVATPTLVVGGSADQIASVDKHARPFYNSLTGARDRGLLNVAAADHGDFTQENSITGRYAAAWLKRFVDEDTRYDQYLCPATGGPGVTEYSASCPLS [TEP151]	< 25 µg
MGPWLASFGFVVLGIETNSRTDGADARATQLLAGLDYLTRTSPVRSRVDPNRLSVMGHSAGGAGTLLAALRRPSLRTAVGLAPGTPGNNLNMSTTQVPTLLLSGQNDGTVTPSYVQGIYNTLPAGVEHAWAELAGNDHLSFTRSNPTEMRLLIPWLKIFLDYDTRYTQFLCPLSNSTGVSRYSSTCPLVPPGGPTVPPTTTPPPTTPPPTTPPTTPPPTTPPPTTPPPGTACTATYRTIGSWSGGFQGEVTVTAGSAAVDGWTARWQLASGQGISQVWNGTLSTSGTTVTVRNADYNGTLAPGTSTTFGFLGTGTPNSPSPTCTSP [ESM008]	< 25 µg
AENPYQRGPDPTPASVSANRGSFATTQVSVPSGNGFGGGIIYYPTDTSQGKFGAIAIVPGYTATWAAEGAWMGHWLASFGFVVIGIDTNNRNDWDNARGQQLLAALDYLTQRSSVRDRVDATRAAVMGHSMGGGGAAYASLQRPTLKTSVGLAPASFSQNLTTTRVPTMLLSGQNDGTVTPSSVLNLYNGIPAGVEKAYLELTGAGHGFPTSNNPTMMRVVIPWFKVFIDSDTRYTQFLCPLSNGNGIRSYQSTCPLVPSTPPTSTTTSTTTTTTTTTTTTTTTTSTSTTTTTPQPGGACSAVFRTTNSWPGGYQAEVTVTAGDSGVSGWTTHWTLGSGESVSQVWNGALTVSGSSVSVRNVSYNGSLAPNRSTTFGFIGGGAPPTSPFTCTSP [ESM029]	< 25 µg
AQSPYERGPAPTETSVRASTGPFQYAQVSVPGAGFGSGTIYYPTDTGQGTFGGVAVSPGFLSPEILIAWLGPKLASNGFVVITISTNNPGDQPDSRGEQLLAALNYLATQSPAAVRQRLDPGRLSVIGHSMGGGGALRAADSRPDLQAAIPLGGWHTNKNWSNIRVPTMVIGAQNDFIAPNDQHSQRFYTSITQAPEKAYLRPVGTGHVNVGTGTPVVGKFVLSWLKRFVDDDTRYDQFLCPTPSGSDLVEYHSTCPHT [DP014]	< 25 µg
GPFAVSSVTVPAGSGPGFNDGTIYYPTDTSQGTFGAVVIMPGFVAVQGQIAWYGPRLASQGFVVMTMDSNALWDFPSDRSRQQLAALNYLTTKSPVKSRIDPNRLALMGWSMGGGGTLESAAANPSLKAAIPLAPWDITNPGDQISVPTMIFGADGDTVAPVSTFTRPAYDALTNTHDKAFVELKGADHFTFASPNTTVAKYSISWLKRFVDNDTRYDQFLCPIPN [TEP056]	< 25 µg
ADNPYERGPDPTEQLIESARGPFATAQTRVSSLSVTGFGGGVIYYPTDTSQGTFGAVAISPGFTADWTSLDWLGPRLASHGFVVIGIDTITRLDQPDSRGRQLLAALDYLTQRSSVRSRVDASRLAVAGHSMGGGGSLEAAKSRTSLKAAIPLAPWNLDKTWPEVVTPTMIFGGELDTVAPVSTHAIPFYNSLTNAREKAYLEIDNGSHFFPNVSNTLVAKYMISWLKRYVDNDTRYEQFLCPVPDDRGLSDSRGTCPGS [TEP135]	< 25 µg
QENPFERGPDPTERSIEAPRGPFATATTTVARGGVQGFGGGTIYYPTDTSEGTFGAVAISPGFTESQSAISWYGQRLASQGFVVFTIDTNGIFDFPDQRGDQLLAALDYLTTHSTVADRIDADRLGVLGHSMGGGGSLSAVDERTELQAAIPLAPWHLNQNWSGVDVPTMIIGGETDFIAPVDTHAEPFYQSLPSSLDKAYLEMKGKGHFVTNSPNTVIAKFAISWLKRFIDNDTRYERFLCPAPSPDAEISEYRDTCPH [TEP078]	< 25 µg
GRMDSNVIDASGYSDLSLSFDRTTSGLDFGESGRVSVSINGGSFTVLESLRRASGRTTLQLGSSADNSSIQIRYQTFASSFYEIYTIDNIVIEGNSDSPPPPPPTGDLAAIGAYLETGGTATTPDQFSFTNTGDINIDSLTIDLSGGNASPVFDPNGVSFTVTGSDNVGFSGNFGLSGNSLLTLNFIDFGPGETFSFSGDLDDSNGSYTTGADVMGAELTVSASGNPSVSASFTVDSSNADRAVVNIGGSTPPPPIGGGCGPDPTVASLEASTGPFSFSNIDVPSSAQGFRNGTIYYPTNAPSDCTFGVISVVPGFLANESSIDWWGPRLASHGFIVITINTNTITDQPNSRALQSIAALNYAVNLGNSSSSAIGGKVDSSKQGVMGWSMGGGGALRAAADNPYLKAAMPQAPFNSGPNDFDEITVPTLIIACENDTVASVGIHASPFYNAISSTTEKGFLEINNGNHSCANGGSNRDILGKYGVSWMKRFMDDDTRYSQFLCDVNHTSDSAISDYRENCPY [TEP172]	< 25 µg
AAPATAPSVQRAAANPHERGPAPTEESITAEEGPFEFETIDVPAGSGDGFNQGTIYAPTDLSQGTFGAIAVSPGFVSPEALISWYGPRLASQGFVVMTIETNTLLDQPAARGDQLLAALDYLTGGDSPVRDRVDTGRLAVTGHSMGGGGTLEAARERPGLRAAVPLAPWNLNSDWSAVRTPTMILGAQNDFIAANGLHSEPFYEGLTSAPEKAYAEIANTGHMSFNTPNDVIAKYTIAWMKRYVDDDTRYERFLCPAPSDDPALVEYRDTCPGG [TEP002]	< 25 µg
